The source of these data is the Immune Epitope Database (IEDB).

The target in one test is HLA-B*15:03. Briefly: IEDB peptide-MHC binding, purified MHC/competitive/radioactivity; filed as Kd, often an IC50 or EC50 that approximates it; ≥ and ≤ were set here for values at or beyond the usual limits of such assays.
Test [1] addresses HLA-A*31:01. As to the kind of experiment: IEDB peptide-MHC binding, purified MHC/competitive/fluorescence; filed as Kd, often an IC50 or EC50 that approximates it; ≥ and ≤ were set here for values at or beyond the usual limits of such assays.
In test [2] the target is HLA-A*11:01. As to the kind of experiment: IEDB peptide-MHC binding, purified MHC/direct/fluorescence; filed as Kd, often an IC50 or EC50 that approximates it; ≥ and ≤ were set here for values at or beyond the usual limits of such assays.
Test [3] concerns the target HLA-A*03:01. The description is as above.
Test [4] addresses HLA-A*11:01. Briefly: IEDB peptide-MHC binding, purified MHC/competitive/fluorescence; ≥ and ≤ were set here for values at or beyond the usual limits of such assays.
Test [5] addresses HLA-A*03:01. The description is as above.
The next test addresses HLA-A*24:02. Described as above.
The target of the next test is HLA-A*68:02. Briefly: IEDB peptide-MHC binding, purified MHC/direct/fluorescence; filed as Kd, often an IC50 or EC50 that approximates it; ≥ and ≤ were set here for values at or beyond the usual limits of such assays. Conditions: source organism: Escherichia coli O157:H7.
The target of a further test is HLA-B*58:01. Described as above.
The next test has as its target HLA-B*15:17. The description is as above.
The next test concerns the target HLA-B*57:01. Described as above.
The target of test [6] is HLA-A*31:01. Described as above. The note with it: source organism: Escherichia coli O157:H7.
The target in another test is HLA-A*01:01. The test is described as above. Conditions: source organism: Escherichia coli O157:H7.
The target of the next test is HLA-B*27:05. The description is as above. Conditions: source organism: Escherichia coli O157:H7.
Another test deals with HLA-A*69:01. The description is as above.
A further test has as its target HLA-B*18:01. The description is as above. Conditions: source organism: Escherichia coli O157:H7.
The target in the next test is HLA-B*48:01. Described as above. Conditions: source organism: Escherichia coli O157:H7.
For the next test, the target named is HLA-B*07:02. The description is as above. The note with it: source organism: Escherichia coli O157:H7.
The target in test [7] is HLA-A*02:01. The test is described as above. Conditions: source organism: Escherichia coli O157:H7.
The target of another test is HLA-B*40:01. Described as above. Conditions: source organism: Escherichia coli O157:H7.
The target in test [8] is HLA-B*15:01. As to the kind of experiment: IEDB peptide-MHC binding, purified MHC/competitive/fluorescence; filed as Kd, often an IC50 or EC50 that approximates it; ≥ and ≤ were set here for values at or beyond the usual limits of such assays. The note with it: source organism: Escherichia coli E22.
Test [9] deals with HLA-A*03:01. Described as above.
For another test, the target named is HLA-A*30:01. Briefly: IEDB peptide-MHC binding, purified MHC/competitive/radioactivity; filed as Kd, often an IC50 or EC50 that approximates it; ≥ and ≤ were set here for values at or beyond the usual limits of such assays. The note with it: source organism: Dengue virus 1 Brazil/97-11/1997.
A further test concerns the target HLA-A*32:01. The test is described as above.
In another test the target is HLA-A*68:01. The test is described as above. Conditions: source organism: Dengue virus 1 Brazil/97-11/1997.
For the next test, the target named is HLA-A*02:11. Briefly: IEDB peptide-MHC binding, purified MHC/direct/fluorescence; filed as Kd, often an IC50 or EC50 that approximates it; ≥ and ≤ were set here for values at or beyond the usual limits of such assays. The note with it: source organism: Mycobacterium tuberculosis str. Haarlem.
For another test, the target named is HLA-A*02:12. Described as above. The note with it: source organism: Mycobacterium tuberculosis str. Haarlem.
Test [10] deals with HLA-A*02:01. As to the kind of experiment: IEDB peptide-MHC binding, purified MHC/competitive/fluorescence; ≥ and ≤ were set here for values at or beyond the usual limits of such assays.
Test [11] deals with HLA-B*15:01. As to the kind of experiment: IEDB peptide-MHC binding, purified MHC/competitive/radioactivity; filed as Kd, often an IC50 or EC50 that approximates it; ≥ and ≤ were set here for values at or beyond the usual limits of such assays. Conditions: source organism: Vaccinia virus Copenhagen.
The target in test [12] is HLA-B*15:01. As to the kind of experiment: IEDB peptide-MHC binding, purified MHC/direct/fluorescence; filed as Kd, often an IC50 or EC50 that approximates it; ≥ and ≤ were set here for values at or beyond the usual limits of such assays. The note with it: source organism: Escherichia coli O157:H7.
The next test concerns the target HLA-B*44:02. The test is described as above. Conditions: source organism: Escherichia coli O157:H7.
Setting [13] is: source organism: Vaccinia virus WR.
[14] abbreviates: source organism: Mammarenavirus lassaense.
The mark [15] stands for this setting: source organism: Zaire ebolavirus.
Where [16] appears, read: source organism: Escherichia coli O157:H7.
[17] abbreviates: source organism: Escherichia coli E22.
The mark [18] stands for this setting: source organism: Vaccinia virus.
[19] abbreviates: source organism: Influenza B virus.
Setting [20] is: source organism: Mycobacterium tuberculosis.
[21] abbreviates: source organism: Sudan ebolavirus.
[22] abbreviates: source organism: Giardia lamblia ATCC 50803.
Setting [23] is: source organism: Vaccinia virus Copenhagen.

For AKSKFPRSM, in the test with HLA-B*15:03 (setting [13]), the Kd is 0.000261 µM.
Consider ALTKNYLSF, for which, in the test with HLA-B*15:03 (setting [13]), the Kd was 0.0401 µM.
As for AVNNLVELK, the figures for the Kd with HLA-A*31:01 [1] (source organism: Lassa virus Josiah), in the test with HLA-A*11:01 [2] (setting [14]) and in the test with HLA-A*03:01 [3] (setting [14]) were 0.0775 µM, 0.0112 µM and 2.4 µM, respectively.
For the sequence DYHKILTAG, the IC50 with HLA-A*11:01 [4] (setting [15]) is 58.5 µM; in the test with HLA-A*03:01 [5] (setting [15]), not below 164 µM; with HLA-A*24:02 (setting [15]), 39.9 µM.
As for EEDAAVDDL, the equilibrium dissociation constant (Kd) in the test with HLA-A*68:02, in the test with HLA-B*58:01 (setting [16]), with HLA-B*15:17 (setting [16]), with HLA-A*11:01 [2] (setting [16]), with HLA-B*57:01 (setting [16]) and with HLA-A*31:01 [6] was not below 20 µM each time. The Kd with HLA-A*01:01, in the test with HLA-B*27:05, with HLA-A*69:01 (setting [16]), with HLA-B*18:01, in the test with HLA-B*48:01 and in the test with HLA-B*07:02 was not below 20 µM throughout. Besides, the Kd with HLA-A*02:01 [7] was not below 20 µM; with HLA-B*40:01, 1.45 µM.
Regarding EMFIIKYFK, the Kd with HLA-B*15:01 [8] was not below 20 µM; in the test with HLA-A*31:01 [1] (setting [17]), 0.394 µM; in the test with HLA-A*03:01 [9] (setting [17]), not below 20 µM.
For the sequence FKFNSQVSI, in the test with HLA-B*15:03 (setting [13]), the Kd was determined as 0.00124 µM.
In the test with HLA-A*03:01 [9] (source organism: Shigella sonnei Ss046), IMYPSPNGH displayed a Kd of 0.0077 µM.
As for INNQLLLQK, the half-inhibitory concentration (IC50) is 2.44 µM with HLA-A*11:01 [4] (setting [18]) and 64.2 µM with HLA-A*03:01 [5] (setting [18]).
In the case of ITHPKYRKK, in the test with HLA-A*03:01 [9] (source organism: Vibrio antiquarius), the Kd was not below 20 µM.
Take KSEPEGTRM: the Kd in the test with HLA-B*58:01 (setting [19]) was 19.7 µM; with HLA-B*15:17 (setting [19]), 3.5 µM; in the test with HLA-B*57:01 (setting [19]) it was not below 20 µM.
Turning to KSVEDVSAF, the Kd with HLA-B*15:03 (setting [13]) came out at 0.0136 µM.
KTFDTEYQK: the Kd with HLA-A*30:01 came out at 0.388 µM; in the test with HLA-A*32:01 (source organism: Dengue virus 1 Brazil/97-11/1997), 7.72 µM; with HLA-A*68:01, 0.0046 µM; in the test with HLA-A*31:01 [1] (source organism: dengue virus type 1), 0.128 µM; with HLA-A*11:01 [2] (source organism: Dengue virus 1 Singapore/S275/1990), 0.0125 µM.
Consider LLDEGKQSL, for which the Kd is 0.004 µM in the test with HLA-A*02:11, 7 µM with HLA-A*69:01 (setting [20]) and 0.004 µM in the test with HLA-A*02:12.
In the case of LLGQNTPAI, the Kd came out at 1.19 µM with HLA-A*69:01 (setting [20]) and 0.004 µM with HLA-A*02:12.
For the sequence LMMTATGEY, the Kd with HLA-A*03:01 [9] (source organism: Escherichia coli B7A) amounted to 1.78 µM.
Consider LMQGSTLPR, for which the Kd in the test with HLA-A*31:01 [1] (source organism: Influenza A virus (A/swine/Italy/1509-6/97(H1N1))) stood at 0.0302 µM; in the test with HLA-A*03:01 [3] (source organism: Influenza A virus (A/South Carolina/1/1918(H1N1))) it was 6 µM.
Take LRTYTILNR: in the test with HLA-A*03:01 [5] (setting [21]), the IC50 is not below 286 µM.
As for LTGGTGVGK, the IC50 in the test with HLA-A*11:01 [4] (source organism: Variola virus) amounted to 0.998 µM; with HLA-A*03:01 [5] (source organism: Variola virus), 5.75 µM; in the test with HLA-A*24:02 (source organism: Variola virus), 38.8 µM.
Regarding LVDYGLVSK, the IC50 in the test with HLA-A*11:01 [4] (setting [13]) turned out to be 1.33 µM; with HLA-A*03:01 [5] (setting [13]), 12.5 µM.
For MVLASTTAK, the Kd came to 0.0461 µM in the test with HLA-A*31:01 [1] (source organism: Influenza A virus (A/swine/Hannover/1/1981(H1N1))) and 0.0159 µM with HLA-A*03:01 [3] (source organism: Influenza A virus (A/turkey/MN/735/79(H6N2))).
Consider MVQVHSQGR, for which the IC50 in the test with HLA-A*11:01 [4] (setting [15]) worked out at 4.76 µM; with HLA-A*03:01 [5] (setting [15]), 61.4 µM.
Regarding NKFFEVIFF, the Kd with HLA-B*15:03 (setting [13]) amounted to 0.0188 µM.
In the test with HLA-A*03:01 [9] (source organism: Rickettsia sibirica 246), NLQPPALSK came in with a Kd of 0.43 µM.
In the case of QRVIPVYQV, the IC50 with HLA-A*11:01 [4] (setting [15]) is 16.2 µM; in the test with HLA-A*03:01 [5] (setting [15]), not below 93.5 µM; in the test with HLA-A*02:01 [10] (setting [15]), not below 113 µM.
In the case of RLNWLTHLK, the Kd with HLA-A*31:01 [1] (source organism: Influenza A virus (A/CHU/2-524/2005(H3N2))) is 0.0025 µM; in the test with HLA-A*03:01 [3] (source organism: Influenza A virus (A/Nagasaki/N03/2005(H3N2))), 0.264 µM.
RQSSCKMAL: the Kd in the test with HLA-B*15:03 (setting [13]) was 0.0188 µM.
For SLLQLPRDK, the figures for the half-maximal inhibitory concentration (IC50) in the test with HLA-A*11:01 [4] (setting [21]), with HLA-A*03:01 [5] (setting [21]) and in the test with HLA-A*02:01 [10] (setting [21]) were 5.08 µM, 3.84 µM and 16.5 µM, respectively.
Regarding SQVSSTELF, the Kd with HLA-B*15:03 (setting [13]) amounted to 0.00183 µM.
Take STFTRGAQK: the Kd is 0.027 µM in the test with HLA-A*31:01 [1] (setting [14]), 0.0015 µM with HLA-A*11:01 [2] (setting [14]) and 0.0784 µM with HLA-A*03:01 [3] (setting [14]).
The sequence SVFESWLEK showed a Kd in the test with HLA-A*03:01 [9] (setting [17]) of 0.211 µM.
Turning to TCKAFGLYK, the IC50 was found to be 1.14 µM with HLA-A*11:01 [4] (setting [13]) and 6.41 µM with HLA-A*03:01 [5] (setting [13]).
Turning to TTHSKGATK, the Kd with HLA-A*31:01 [1] (setting [22]) worked out at 0.454 µM; with HLA-A*11:01 [2] (setting [22]), 0.246 µM; with HLA-A*03:01 [3] (setting [22]), 0.337 µM.
Turning to VSFSPSLTF, the Kd was found to be 0.00126 µM with HLA-B*15:01 [11], 0.736 µM with HLA-A*32:01 (setting [23]) and 0.00122 µM with HLA-B*15:03 (setting [23]).
On to VTRFESLK, for which the equilibrium dissociation constant (Kd) with HLA-A*03:01 [9] (source organism: Influenza A virus (A/Swine/Minnesota/55551/2000(H1N2))) was not below 20 µM.
As for YECTSRHFT, the Kd with HLA-A*68:02, in the test with HLA-B*58:01 (setting [16]), with HLA-B*15:17 (setting [16]), with HLA-B*15:01 [12], in the test with HLA-A*11:01 [2] (setting [16]) and with HLA-B*57:01 (setting [16]) was not below 20 µM throughout. Moreover, the Kd with HLA-A*31:01 [6], with HLA-A*03:01 [3] (setting [16]), in the test with HLA-A*01:01, with HLA-B*44:02, in the test with HLA-B*27:05 and with HLA-A*69:01 (setting [16]) was not below 20 µM each time. Also, the Kd with HLA-B*18:01 is 0.318 µM; with HLA-B*48:01 it was not below 20 µM; with HLA-B*07:02 it was not below 20 µM; with HLA-A*02:01 [7] it was not below 20 µM; with HLA-B*40:01, 2.27 µM.
